Data from article PMC5562331, “The transcriptional regulator SsrB is involved in a molecular switch controlling virulence lifestyles of Salmonella”.

Molecular target: 6H-SsrBc (Salmonella enterica serovar Typhimurium, UniProt Q7CQM5 138-212)
Test: EMSA; 0-2 uM protein
Conditions: protein: recombinant; 5' overhang 4 nt at both ends

Sequence of 6H-SsrBc (Q7CQM5 138-212): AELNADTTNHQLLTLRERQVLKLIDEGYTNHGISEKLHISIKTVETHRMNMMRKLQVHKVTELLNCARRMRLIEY

Binder | binding result
hilA -35+6 (dsDNA) DNA 1: GATCCGCATTTACACCCCAAAAAAATGCAGTAAGATAGCTACAAA DNA 2: AGCTTTTGTAGCTATCTTACTGCATTTTTTTGGGGTGTAAATGCG | no binding
hilD -37+6 (dsDNA) DNA 1: GATCCGCATTTACAACTCAGATTTTTTCAGTAGGATACCAGTAAGGA DNA 2: AGCTTCCTTACTGGTATCCTACTGAAAAAATCTGAGTTGTAAATGCG | binds
